From IntAct's records for PubMed 30523278

B1: Protein amnionless (Homo sapiens), Q9BXJ7 (parent)
chain: MGVLGRVLLWLQLCALTQAVSKLWVPNTDFDVAANWSQNRTPCAGGAVEFPADKMVSVLVQEGHAVSDMLLPLDGELVLASGAGFGVSDVGSHLDCGAGEPAVFRDSDRFSWHDPHLWRSGDEAPGLFFVDAERVPCRHDDVFFPPSASFRVGLGPGASPVRVRSISALGRTFTRDEDLAVFLASRAGRLRFHGPGALSVGPEDCADPSGCVCGNAEAQPWICAALLQPLGGRCPQAACHSALRPQGQCCDLCGAVVLLTHGPAFDLERYRARILDTFLGLPQYHGLQVAVSKVPRSSRLREADTEIQVVLVENGPETGGAGRLARALLADVAENGEALGVLEATMRESGAHVWGSSAAGLAGGVAAAVLLALLVLLVAPPLLRRAGRLRWRRHEAAAPAGAPLGFRNPVFDVTASEELPLPRRLSLVPKAAADSTSHSYFVNPLFAGAEAEA

Variants of: B1
Settings: with cubn_human CUBN

Row | Variant | effect of a mutation on the interaction
1 | M69K | disrupting interaction strength
2 | C234F | disrupting interaction strength
3 | L59P | disrupting interaction strength
4 | G254E | disrupting interaction strength

Variants of: B1
Settings: with cubn_human CUBN
Remark: another data set of the same source

Row | Variant | effect of a mutation on the interaction
5 | S37A | with no effect
6 | N35Q | disrupting interaction strength
7 | N35Q;T41I | disrupting interaction strength
8 | T41I | with no effect
9 | S37A;T41I | with no effect
